The target in this assay is KaiB labeled with 6-iodoacetamidofluorescein (KaiB-6IAF) (Synechococcus elongatus) (UniProt Q79PF5). The experiment in a line: other fluorescence titration.
Sequence of UniProt Q79PF5 (Q79PF5 whole entry): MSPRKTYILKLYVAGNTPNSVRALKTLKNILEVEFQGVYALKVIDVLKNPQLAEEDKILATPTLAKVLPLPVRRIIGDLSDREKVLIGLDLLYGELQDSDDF

B1: KaiC (natural protein)
chain: MTSAEMTSPNNNSEHQAIAKMRTMIEGFDDISHGGLPIGRSTLVSGTSGTGKTLFSIQFLYNGIIEFDEPGVFVTFEETPQDIIKNARSFGWDLAKLVDEGKLFILDASPDPEGQEVVGGFDLSALIERINYAIQKYRARRVSIDSVTSVFQQYDASSVVRRELFRLVARLKQIGATTVMTTERIEEYGPIARYGVEEFVSDNVVILRNVLEGERRRRTLEILKLRGTSHMKGEYPFTITDHGINIFPLGAMRLTQRSSNVRVSSGVVRLDEMCGGGFFKDSIILATGATGTGKTLLVSRFVENACANKERAILFAYEESRAQLLRNAYSWGMDFEEMERQNLLKIVCAYPESAGLEDHLQIIKSEINDFKPARIAIDSLSALARGVSNNAFRQFVIGVTGYAKQEEITGLFTNTSDQFMGAHSITDSHISTITDTIILLQYVEIRGEMSRAINVFKMRGSWHDKAIREFMISDKGPDIKDSFRNFERIISGSPTRITVDEKSELSRIVRGVQEKGPES
B1 had a decrease of KaiB-6IAF fluorescence intensity at 3.5 uM KaiC of 60% and a maximal quenching of KaiB-6IAF of 40%.

These data come from article doi:10.1101/2024.10.13.617916.
